Experimental data as given in the RNAGym collection of RNA variant scans (doi:10.7554/elife.80360).

B1: CPEB3 Ribozyme (parent)
chain: GGGGGCCACAGCAGAAGCGUUCACGUCGCGGCCCCUGUCAGAUUCUGGUGAAUCUGCGAAUUCUGCUGU

Variants of: B1
Assay: self-cleavage, relative activity (ratio to wild type); higher = more cleavage; co-transcriptional

Variant	self-cleavage
A40G G68A	0.954
A40G G68C	0.953
G41A U67A	0.756
G41A U67G	0.777
A40G U67C	0.901
A40G U67G	0.965
G41C C57U	0.329
G41C U49C	0.871
G41C U49A	0.988
G41A U64G	0.501
G41A U64C	0.385
G41U U46C	0.752
G41U U46G	0.887
G41U U46A	0.947
A40U C57G	0.366
G41C U62C	0.365
G41C U62G	0.363
G41A C63U	0.59
G41A C63G	0.348
G41C U69G	0.959
G41C U69C	1.01

Variant	self-cleavage
A42C C45A	0.851
A42C C45U	0.937
A42C C45G	0.819
G41C C63A	0.296
A40C G56U	0.401
A40C G56C	0.341
A40C G56A	0.546
G41A A42C	0.588
G41A A42G	0.855
G41U C63U	0.691
G41C U44G	0.317
G41C U44A	0.377
G41C U44C	0.342
A40C G65C	0.332
A40C G65A	0.387
A40U G65U	0.405
A40U G65C	0.304
A40U G65A	0.352
G41A U61A	0.463
G41A U61G	0.331
G41U U49C	0.849

Variant	self-cleavage
G41U G68U	0.972
G41U G68C	0.93
G41U G68A	0.931
A40G A60U	0.486
A40G A60G	0.859
A40G A60C	0.329
A42C A51G	0.852
G41A G47C	0.913
A40U U43C	0.485
A40U U43A	0.306
A40C U43G	0.281
A40C U43C	0.314
A40C U43A	0.356
A40C U62G	0.352
A40C U62C	0.255
A40C U62A	0.385
A40G G41C	0.433
A40G G41U	0.722
A40G G41A	0.706
G41C A42C	0.26
G41C A42U	0.504

Variant	self-cleavage
G41U A52C	0.431
G41U A52G	0.749
A40G A51C	0.927
A40G A51U	0.891
A40G U69A	1.01
A40G U69G	1.02
A40G U69C	0.718
A40G U43A	0.809
A40G U43G	0.614
A40G U43C	0.764
A40U A52G	0.832
A40U G41A	0.537
G41A G68U	0.913
G41A G68C	0.881
G41C A51U	0.542
G41C A51C	0.43
A40U U46C	0.716
A40U U46G	0.878
A40U U46A	0.919
A40C G48U	0.884
